From US20200277397A1 (Genmab, published 2020)
Like-named read-outs stand apart in the source and are kept apart here. Values belong to the binder of their own block, whether it stands above or below them.

Tests used:
[1] = biological target: T1, full length cynomolgus monkey 5T4 (cynomolgus monkey, UniProt Q4R8Y9 35-420); assay: flow cytometry, HEK-293 cells transfected with cynomolgus monkey 5T4 (right panel), PE anti-human IgG F(ab')2, MFI PE
T1 construct: Uniprot Q4R8Y9; also called cynomolgus monkey 5T4 on HEK-293 cells
T1 sequence: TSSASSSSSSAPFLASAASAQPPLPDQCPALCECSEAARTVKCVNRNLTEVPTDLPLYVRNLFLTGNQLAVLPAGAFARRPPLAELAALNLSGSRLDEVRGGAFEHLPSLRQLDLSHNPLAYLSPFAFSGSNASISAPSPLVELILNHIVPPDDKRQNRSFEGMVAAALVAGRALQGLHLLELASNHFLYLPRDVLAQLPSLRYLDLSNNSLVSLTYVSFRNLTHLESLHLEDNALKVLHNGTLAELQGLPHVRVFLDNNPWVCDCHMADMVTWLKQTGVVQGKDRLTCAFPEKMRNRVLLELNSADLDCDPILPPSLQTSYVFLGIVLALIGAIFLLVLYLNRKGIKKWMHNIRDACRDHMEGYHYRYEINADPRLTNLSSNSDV

full length human 5T4 [2] = biological target: T2, full length human 5T4 (human, UniProt Q13641 32-420); assay: flow cytometry, HEK-293 cells transfected with human 5T4 (left panel), PE anti-human IgG F(ab')2, MFI PE
T2 construct: Uniprot Q13641; Used here also for endogenous 5T4 on the human tumour cell lines
T2 sequence: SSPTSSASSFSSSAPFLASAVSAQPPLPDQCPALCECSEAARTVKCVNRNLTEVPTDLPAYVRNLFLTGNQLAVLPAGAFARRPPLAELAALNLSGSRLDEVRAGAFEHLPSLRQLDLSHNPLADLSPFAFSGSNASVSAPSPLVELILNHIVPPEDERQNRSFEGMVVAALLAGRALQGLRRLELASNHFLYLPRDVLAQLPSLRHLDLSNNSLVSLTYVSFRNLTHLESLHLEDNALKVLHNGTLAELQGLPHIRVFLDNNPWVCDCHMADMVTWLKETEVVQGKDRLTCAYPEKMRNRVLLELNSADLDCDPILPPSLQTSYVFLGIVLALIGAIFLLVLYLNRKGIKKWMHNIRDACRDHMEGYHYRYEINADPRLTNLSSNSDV

full length human 5T4 [3] = biological target: T2, full length human 5T4; assay: as above; remark: listed apart in the source
[4] = biological target: T1, full length cynomolgus monkey 5T4; assay: flow cytometry, HEK-293 cells transfected with cynomolgus monkey 5T4 (right panel), PE anti-human IgG F(ab')2, MFI PE; remark: listed apart in the source
[5] = biological target: T1, full length cynomolgus monkey 5T4; assay: as above; remark: listed apart in the source
full length human 5T4 [6] = biological target: T2, full length human 5T4; assay: flow cytometry, HeLa cells, PE anti-human IgG F(ab')2, MFI PE
[7] = biological target: T1, full length cynomolgus monkey 5T4; assay: flow cytometry, HEK-293 cells transfected with cynomolgus monkey 5T4 (right panel), PE anti-human IgG F(ab')2, MFI PE; remark: listed apart in the source
full length human 5T4 [8] = biological target: T2, full length human 5T4; assay: flow cytometry, HeLa cells, PE anti-human IgG F(ab')2, MFI PE; remark: listed apart in the source
[9] = biological target: T1, full length cynomolgus monkey 5T4; assay: flow cytometry, HEK-293 cells transfected with cynomolgus monkey 5T4 (right panel), PE anti-human IgG F(ab')2, MFI PE; remark: listed apart in the source

B4: bsIgG1-huCD3-H101G-FEALx5T4-A3-FEAR (bispecific antibody)
heavy 1: not shown
VL 1: not shown
heavy 2: EVQLVESGGGLVQPKGSLKLSCAASGFTFNTYAMNWVRQAPGKGLEWVARIRSKSNNYATYYADSVKDRFTISRDDSQSMLYLQMNNLKTEDTAMYYCVRQWDYDVRAMNYWGQGTSVTVSSASTKGPSVFPLAPSSKSTSGGTAALGCLVKDYFPEPVTVSWNSGALTSGVHTFPAVLQSSGLYSLSSVVTVPSSSLGTQTYICNVNHKPSNTKVDKRVEPKSCDKTHTCPPCPAPEFEGGPSVFLFPPKPKDTLMISRTPEVTCVVVAVSHEDPEVKFNWYVDGVEVHNAKTKPREEQYNSTYRVVSVLTVLHQDWLNGKEYKCKVSNKALPAPIEKTISKAKGQPREPQVYTLPPSREEMTKNQVSLTCLVKGFYPSDIAVEWESNGQPENNYKTTPPVLDSDGSFFLYSRLTVDKSRWQQGNVFSCSVMHEALHNHYTQKSLSLSPGK
VL 2: DIVMTQSHIFMSTSVGDRVSITCKASQDVDTAVAWYQQKPGQSPKLLIYWASTRLTGVPDRFTGSGSGTDFTLTISNVQSEDLADYFCQQYSSYPYTFGGGTKLEIK
binding result (full length human 5T4 [6]): binds
binding result [7]: binds

B5: bsIgG1-huCD3-H101G-FEALx5T4-A1-FEAR (bispecific antibody)
heavy 1: not shown
VL 1: not shown
heavy 2: QIQLVQSGPELKKPGETVKISCKASGYTFTNFGMNWVKQGPGEGLKWMGWINTNTGEPRYAEEFKGRFAFSLETTASTAYLQINNLKNEDTATYFCARDWDGAYFFDYWGQGTTLTVSSASTKGPSVFPLAPSSKSTSGGTAALGCLVKDYFPEPVTVSWNSGALTSGVHTFPAVLQSSGLYSLSSVVTVPSSSLGTQTYICNVNHKPSNTKVDKRVEPKSCDKTHTCPPCPAPEFEGGPSVFLFPPKPKDTLMISRTPEVTCVVVAVSHEDPEVKFNWYVDGVEVHNAKTKPREEQYNSTYRVVSVLTVLHQDWLNGKEYKCKVSNKALPAPIEKTISKAKGQPREPQVYTLPPSREEMTKNQVSLTCLVKGFYPSDIAVEWESNGQPENNYKTTPPVLDSDGSFFLYSRLTVDKSRWQQGNVFSCSVMHEALHNHYTQKSLSLSPGK
VL 2: SIVMTQTPKFLLVSAGDRVTITCKASQSVSNDVAWYQQKPGQSPKLLINFATNRYTGVPNRFTGSGYGTDFTFTISTVQAEDLALYFCQQDYSSPWTFGGGTKLEIK
binding result (full length human 5T4 [8]): binds
binding result [9]: binds

Now from value to binder:

EC50 (read off the curve) [1]: ~0.4 µg/mL
binding result (full length human 5T4 [2]): binds
B1: bsIgG1-huCD3-H101G-FEALx5T4-076-FEAR (bispecific antibody)
heavy 1: not shown
VL: not shown
heavy 2: QVQLVQSGAEVKKPGASVKVSCKASGYTFTSYGISWVRQAPGQGLEWMGWISAYNGNTNYAQKLQGRVTMTTDTSTRTAYMELRSLRSDDTAVYYCARDPGYFDWLYGDYWGQGTLVTVSSASTKGPSVFPLAPSSKSTSGGTAALGCLVKDYFPEPVTVSWNSGALTSGVHTFPAVLQSSGLYSLSSVVTVPSSSLGTQTYICNVNHKPSNTKVDKRVEPKSCDKTHTCPPCPAPEFEGGPSVFLFPPKPKDTLMISRTPEVTCVVVAVSHEDPEVKFNWYVDGVEVHNAKTKPREEQYNSTYRVVSVLTVLHQDWLNGKEYKCKVSNKALPAPIEKTISKAKGQPREPQVYTLPPSREEMTKNQVSLTCLVKGFYPSDIAVEWESNGQPENNYKTTPPVLDSDGSFFLYSRLTVDKSRWQQGNVFSCSVMHEALHNHYTQKSLSLSPGK
light: not shown

EC50 (read off the curve) (full length human 5T4 [3]): ~0.5 µg/mL
EC50 (read off the curve) [4]: ~0.4 µg/mL
B2: bsIgG1-huCD3-H101G-FEALx5T4-085-FEAR (bispecific antibody)
heavy 1: not shown
VL: not shown
heavy 2: EVQLLESGGGLVQPGGSLRLSCAASGFTFSSYAMSWVRQAPGKGLEWVSAISGSGGSTYNADSVKGRFTIFRDNSKNTLYLHMNSLRAEDTAVYYCARDPGYNNVEYLDHWGQGTLVTVSSASTKGPSVFPLAPSSKSTSGGTAALGCLVKDYFPEPVTVSWNSGALTSGVHTFPAVLQSSGLYSLSSVVTVPSSSLGTQTYICNVNHKPSNTKVDKRVEPKSCDKTHTCPPCPAPEFEGGPSVFLFPPKPKDTLMISRTPEVTCVVVAVSHEDPEVKFNWYVDGVEVHNAKTKPREEQYNSTYRVVSVLTVLHQDWLNGKEYKCKVSNKALPAPIEKTISKAKGQPREPQVYTLPPSREEMTKNQVSLTCLVKGFYPSDIAVEWESNGQPENNYKTTPPVLDSDGSFFLYSRLTVDKSRWQQGNVFSCSVMHEALHNHYTQKSLSLSPGK
light: not shown

EC50 (read off the curve) [5]: ~0.1 µg/mL
B3: bsIgG1-huCD3-H101G-FEALx5T4-127-FEAR (bispecific antibody)
heavy 1: not shown
VL: not shown
heavy 2: EVQLLESRGGLVQPGGSLRLSCAASGFTFSSYAMSWVRQAPGKGLEWVSTISGSGGSTYYADSVKGRFTISRDNSKKTLYLQMNSLRAEDTAVYYCAKDWGSGSYPAEYFQHWGQGTLVTVSSASTKGPSVFPLAPSSKSTSGGTAALGCLVKDYFPEPVTVSWNSGALTSGVHTFPAVLQSSGLYSLSSVVTVPSSSLGTQTYICNVNHKPSNTKVDKRVEPKSCDKTHTCPPCPAPEFEGGPSVFLFPPKPKDTLMISRTPEVTCVVVAVSHEDPEVKFNWYVDGVEVHNAKTKPREEQYNSTYRVVSVLTVLHQDWLNGKEYKCKVSNKALPAPIEKTISKAKGQPREPQVYTLPPSREEMTKNQVSLTCLVKGFYPSDIAVEWESNGQPENNYKTTPPVLDSDGSFFLYSRLTVDKSRWQQGNVFSCSVMHEALHNHYTQKSLSLSPGK
light: not shown
